Columns and labels:
[1] = biological target: C2 isoform of CD46 on CHO-C2 cells (human)
[2] = biological target: integrins on CHO and CHO-C2 cells (Chinese hamster (endogenous in CHO))
[3] = biological target: adenovirus serotype 43 virions (human adenovirus serotype 43)
[4] = biological target: adenovirus serotype 35 vector virions (human adenovirus serotype 35)
[5] = biological target: C2 isoform of CD46 on CHO-C2 cells (human); remark: listed apart in the source

Sequence of recombinant soluble human CD46 protein comprising the extracellular component of the receptor (P15529 35-343): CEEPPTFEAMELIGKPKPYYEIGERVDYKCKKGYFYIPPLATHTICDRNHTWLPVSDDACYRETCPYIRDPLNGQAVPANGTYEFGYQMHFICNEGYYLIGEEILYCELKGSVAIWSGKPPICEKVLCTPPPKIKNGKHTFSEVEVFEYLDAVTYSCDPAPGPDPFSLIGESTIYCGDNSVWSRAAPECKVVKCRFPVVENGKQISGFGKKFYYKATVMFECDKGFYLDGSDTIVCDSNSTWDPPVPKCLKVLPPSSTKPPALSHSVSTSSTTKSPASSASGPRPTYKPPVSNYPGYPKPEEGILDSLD

## recombinant Ad43 fiber knob protein (domain or fragment)
[1]
  inhibition of Ad43TL infection of CHO-C2 cells pre-incubated with the Ad43 knob at 100 μg/ml (no inhibition; the text prints 100 mg/ml) and 1 mg/ml; the pair blocked is m3 with m6: 55%

## adenovirus serotype 43 virions (complex)
[2]
  inhibition of Ad43TL transduction of CHO and CHO-C2 cells pre-treated on ice with EDTA (10 mM), virus attached on ice: > 80%
  inhibition of Ad43TL transduction of CHO and CHO-C2 cells pre-treated on ice with the RGD-containing peptide GRGDSP (2 mg/ml), virus attached on ice: > 80%

## recombinant soluble human CD46 protein comprising the extracellular component of the receptor (from UniProt P15529 35-343) (domain or fragment)
[3]
  inhibition of CHO-C2 transduction by Ad43TL pre-incubated with sCD46 (Fluc activity); the pair blocked is m3 with m6: 66%
[4]
  inhibition of CHO-C2 transduction by Ad35TL pre-incubated with sCD46 (Fluc activity); the pair blocked is m4 with m6: 92%

## recombinant Ad35 fiber knob domain (domain or fragment)
[5]
  inhibition of Ad35TL transduction of CHO-C2 cells pre-incubated with the Ad35 knob (Fluc activity); the pair blocked is m4 with m6: 90%
  inhibition of Ad43TL transduction of CHO-C2 cells pre-incubated with the Ad35 knob (Fluc activity); the pair blocked is m3 with m6: 45%
